Values joined by “and” are separate entries in the source; they are usually repeats but may differ in a detail not shown here. Equal entries are not always repeated. “Also recorded” adds a separate entry of the source. Marks after values point to notes of the source that are not given here.
Legend:
[1] = Size exclusion chromatography (gel filtration, Superdex 200); format: physicochemical; details: gel filtration experiments; PBS buffer
Protocol: Chemical crosslinking in intact cells was conducted as described (24). Size exclusion chromatography was conducted at 4° C. Purified proteins (0.5 ml at a concentration of 5 uM) were applied to a Superdex 200 10/30 column (10×300-310 mm) pre-equilibrated with PBS. The sample was eluted with the same buffer at 0.3 ml/min and 0.25 ml fractions were collected. The Superdex 200 10/30 column was calibrated with the Stokes Radii of ferritin (6.1 nm), catalase (5.22 nm), aldolase (4.81 nm), albumin (3.55 nm), ovalbumin (3.05 nm) and chymotrypsinogen A (2.09 nm) from Amersham-Pharmacia.

[2] = Analytical ultracentrifugation (AUC): sedimentation velocity and equilibrium; format: physicochemical; details: for quaternary structure (monomer/dimer) by AUC: PBS buffer where stated; for Stokes' radius (Rs): sedimentation velocity experiments
Protocol: Buffer was changed using an Amicon device and DPP-IV proteins were allowed to equilibrate for at least four hours or longer as indicated in the text at 25° C. after buffer changes. The sedimentation coefficients (S) of the enzyme were estimated by a Beckman-Coulter XL-A analytical ultracentrifuge with an An60Ti rotor as described (25). Sedimentation velocity analysis was performed at 40,000 rpm at 25° C. with standard double sector aluminum centerpieces. The UV absorption of the cells was scanned every 5 min for 4 hours. Sedimentation equilibrium was performed at 20° C. with six-channel open centerpieces and then centrifuged at 12,000 rpm for 12 hours. The data from both sedimentation velocity and sedimentation experiments were analyzed with the SedFit version 8.7 program to obtain molecular weights and sedimentation coefficients (25). Sednterp version 1.07 program is used to obtain solvent density, viscosity, Stokes' radius (Rs) and anhydrous frictional ratio (f/fo).

[3] = system: DPP-IV; experiment: Kinetic constant measurements with chromogenic substrate H-Gly-Pro-pNA; format: biochemical, human
Protocol: To measure the kinetic parameters, the chromogenic substrate H-Gly-Pro-pNA was utilized to initiate the reaction, which was monitored at OD 405 nm as a function of time (21). […] The initial rate was measured with less than 10% substrate depletion for the first 10 to 300 seconds. The steady-state parameters, kcat and Km, were determined from initial velocity measurements at 0.5 to 5 Km of the substrate concentrations. Lineweaver-Burk plots were analyzed using non-linear regression of the Michaelis-Menten equation. Correlation coefficients better than 0.99 were obtained throughout.

[4] = High salt buffer, substrate H-Gly-Pro-pNA
[5] = PBS buffer, substrate H-Gly-Pro-pNA
[6] = compared with wild type rDPP-IV
[7] = values in text, monomeric mutants

Molecule	Stokes' radius (Rs) [1]	Sedimentation coefficient (s20, w) ([2]; High salt buffer) [S]	quaternary structure (subunit composition) by sedimentation velocity ([2]; High salt buffer (0.5 M sodium sulfate))	Anhydrous frictional ratio (f/fo) ([2]; PBS buffer)	Sedimentation coefficient (s20, w) ([2]; PBS buffer)	quaternary structure (monomer/dimer) by AUC [2]	Stokes' radius (Rs) ([2]; High salt buffer)	Stokes' radius (Rs) ([2]; PBS buffer)	Km [3, 4] [µM]	kcat [3, 4] [s⁻¹]	Km [3, 5] [µM]	kcat [3, 5] [s⁻¹]	decrease in kcat [3, 6] [fold]	increase in Km [3, 6] [fold]	AUC analysis or catalytic activities in low salt buffer ([3]; low salt buffer compared to PBS buffer (data not shown))	Km [3, 7] [µM]	kcat [3, 7] [S^−1]
H750E: DPP-IV mutant, H750 mutated to Glu; monomer (protein) SRKTYTLTDYLKNTYRLKLYSLRWISDHEYLYKQENNILVFNAEYGNSSVFLENSTFDEFGHSINDYSISPDGQFILLEYNYVKQWRHSYTASYDIYDLNKRQLITEERIPNNTQWVTWSPVGHKLAYVWNNDIYVKIEPNLPSYRITWTGKEDIIYNGITDWVYEEEVFSAYSALWWSPNGTFLAYAQFNDTEVPLIEYSFYSDESLQYPKTVRVPYPKAGAVNPTVKFFVVNTDSLSSVTNATSIQITAPASMLIGDHYLCDVTWATQERISLQWLRRIQNYSVMDICDYDESSGRWNCLVARQHIEMSTTGWVGRFRPSEPHFTLDGNSFYKIISNEEGYRHICYFQIDKKDCTFITKGTWEVIGIEALTSDYLYYISNEYKGMPGGRNLYKIQLSDYTKVTCLSCELNPERCQYYSVSFSKEAKYYQLRCSGPGLPLYTLHSSVNDKGLRVLEDNSALDKMLQNVQMPSKKLDFIILNETKFWYQMILPPHFDKSKKYPLLLDVYAGPCSQKADTVFRLNWATYLASTENIIVASFDGRGSGYQGDKIMHAINRRLGTFEVEDQIEAARQFSKMGFVDNKRIAIWGWSYGGYVTSMVLGSGSGVFKCGIAVAPVSRWEYYDSVYTERYMGLPTPEDNLDHYRNSTVMSRAENFKQVEYLLIHGTADDNVHFQQSAQISKALVDVGVDFQAMWYTDEDHGIASSTAHQEIYTHMSHFIKQCFSLP	4.6 nm and 4.6^a nm	3.3	monomer	1.3	5.5 S	consists only of monomer; also recorded: nearly exclusive monomers	3.7^b nm	4.0^b nm	1090	2.1	956	2.6	30	10	no differences	–	–
F713R: DPP-IV mutant, F713 substituted with Arginine (protein) SRKTYTLTDYLKNTYRLKLYSLRWISDHEYLYKQENNILVFNAEYGNSSVFLENSTFDEFGHSINDYSISPDGQFILLEYNYVKQWRHSYTASYDIYDLNKRQLITEERIPNNTQWVTWSPVGHKLAYVWNNDIYVKIEPNLPSYRITWTGKEDIIYNGITDWVYEEEVFSAYSALWWSPNGTFLAYAQFNDTEVPLIEYSFYSDESLQYPKTVRVPYPKAGAVNPTVKFFVVNTDSLSSVTNATSIQITAPASMLIGDHYLCDVTWATQERISLQWLRRIQNYSVMDICDYDESSGRWNCLVARQHIEMSTTGWVGRFRPSEPHFTLDGNSFYKIISNEEGYRHICYFQIDKKDCTFITKGTWEVIGIEALTSDYLYYISNEYKGMPGGRNLYKIQLSDYTKVTCLSCELNPERCQYYSVSFSKEAKYYQLRCSGPGLPLYTLHSSVNDKGLRVLEDNSALDKMLQNVQMPSKKLDFIILNETKFWYQMILPPHFDKSKKYPLLLDVYAGPCSQKADTVFRLNWATYLASTENIIVASFDGRGSGYQGDKIMHAINRRLGTFEVEDQIEAARQFSKMGFVDNKRIAIWGWSYGGYVTSMVLGSGSGVFKCGIAVAPVSRWEYYDSVYTERYMGLPTPEDNLDHYRNSTVMSRAENFKQVEYLLIHGTADDNVHRQQSAQISKALVDVGVDFQAMWYTDEDHGIASSTAHQHIYTHMSHFIKQCFSLP	–	–	–	–	–	monomeric DPP-IV; also recorded: monomers	–	–	–	–	–	–	–	–	–	784	2.3
H750A monomer: monomer of H750A DPP-IV separated by gel filtration (protein) SRKTYTLTDYLKNTYRLKLYSLRWISDHEYLYKQENNILVFNAEYGNSSVFLENSTFDEFGHSINDYSISPDGQFILLEYNYVKQWRHSYTASYDIYDLNKRQLITEERIPNNTQWVTWSPVGHKLAYVWNNDIYVKIEPNLPSYRITWTGKEDIIYNGITDWVYEEEVFSAYSALWWSPNGTFLAYAQFNDTEVPLIEYSFYSDESLQYPKTVRVPYPKAGAVNPTVKFFVVNTDSLSSVTNATSIQITAPASMLIGDHYLCDVTWATQERISLQWLRRIQNYSVMDICDYDESSGRWNCLVARQHIEMSTTGWVGRFRPSEPHFTLDGNSFYKIISNEEGYRHICYFQIDKKDCTFITKGTWEVIGIEALTSDYLYYISNEYKGMPGGRNLYKIQLSDYTKVTCLSCELNPERCQYYSVSFSKEAKYYQLRCSGPGLPLYTLHSSVNDKGLRVLEDNSALDKMLQNVQMPSKKLDFIILNETKFWYQMILPPHFDKSKKYPLLLDVYAGPCSQKADTVFRLNWATYLASTENIIVASFDGRGSGYQGDKIMHAINRRLGTFEVEDQIEAARQFSKMGFVDNKRIAIWGWSYGGYVTSMVLGSGSGVFKCGIAVAPVSRWEYYDSVYTERYMGLPTPEDNLDHYRNSTVMSRAENFKQVEYLLIHGTADDNVHFQQSAQISKALVDVGVDFQAMWYTDEDHGIASSTAHQAIYTHMSHFIKQCFSLP	4.6^a nm	3.3	–	1.3	5.5 S	–	3.7^b nm	4.1^b nm	–	–	64	1.4	60	–	–	–	–
Y248A: DPP-IV propeller loop mutant, Y248 substituted with Alanine (protein) SRKTYTLTDYLKNTYRLKLYSLRWISDHEYLYKQENNILVFNAEYGNSSVFLENSTFDEFGHSINDYSISPDGQFILLEYNYVKQWRHSYTASYDIYDLNKRQLITEERIPNNTQWVTWSPVGHKLAYVWNNDIYVKIEPNLPSYRITWTGKEDIIYNGITDWVYEEEVFSAYSALWWSPNGTFLAYAQFNDTEVPLIEYSFYSDESLQAPKTVRVPYPKAGAVNPTVKFFVVNTDSLSSVTNATSIQITAPASMLIGDHYLCDVTWATQERISLQWLRRIQNYSVMDICDYDESSGRWNCLVARQHIEMSTTGWVGRFRPSEPHFTLDGNSFYKIISNEEGYRHICYFQIDKKDCTFITKGTWEVIGIEALTSDYLYYISNEYKGMPGGRNLYKIQLSDYTKVTCLSCELNPERCQYYSVSFSKEAKYYQLRCSGPGLPLYTLHSSVNDKGLRVLEDNSALDKMLQNVQMPSKKLDFIILNETKFWYQMILPPHFDKSKKYPLLLDVYAGPCSQKADTVFRLNWATYLASTENIIVASFDGRGSGYQGDKIMHAINRRLGTFEVEDQIEAARQFSKMGFVDNKRIAIWGWSYGGYVTSMVLGSGSGVFKCGIAVAPVSRWEYYDSVYTERYMGLPTPEDNLDHYRNSTVMSRAENFKQVEYLLIHGTADDNVHFQQSAQISKALVDVGVDFQAMWYTDEDHGIASSTAHQHIYTHMSHFIKQCFSLP	–	–	–	–	–	resulted in monomers; also recorded: monomer	–	–	–	–	–	–	–	–	–	7	0.01
H750A dimer: dimer of H750A DPP-IV separated by gel filtration (protein) SRKTYTLTDYLKNTYRLKLYSLRWISDHEYLYKQENNILVFNAEYGNSSVFLENSTFDEFGHSINDYSISPDGQFILLEYNYVKQWRHSYTASYDIYDLNKRQLITEERIPNNTQWVTWSPVGHKLAYVWNNDIYVKIEPNLPSYRITWTGKEDIIYNGITDWVYEEEVFSAYSALWWSPNGTFLAYAQFNDTEVPLIEYSFYSDESLQYPKTVRVPYPKAGAVNPTVKFFVVNTDSLSSVTNATSIQITAPASMLIGDHYLCDVTWATQERISLQWLRRIQNYSVMDICDYDESSGRWNCLVARQHIEMSTTGWVGRFRPSEPHFTLDGNSFYKIISNEEGYRHICYFQIDKKDCTFITKGTWEVIGIEALTSDYLYYISNEYKGMPGGRNLYKIQLSDYTKVTCLSCELNPERCQYYSVSFSKEAKYYQLRCSGPGLPLYTLHSSVNDKGLRVLEDNSALDKMLQNVQMPSKKLDFIILNETKFWYQMILPPHFDKSKKYPLLLDVYAGPCSQKADTVFRLNWATYLASTENIIVASFDGRGSGYQGDKIMHAINRRLGTFEVEDQIEAARQFSKMGFVDNKRIAIWGWSYGGYVTSMVLGSGSGVFKCGIAVAPVSRWEYYDSVYTERYMGLPTPEDNLDHYRNSTVMSRAENFKQVEYLLIHGTADDNVHFQQSAQISKALVDVGVDFQAMWYTDEDHGIASSTAHQAIYTHMSHFIKQCFSLP	5.7^a nm	5.0	–	1.4	8.5 S and 8.4 S	–	4.9^b nm	5.1^b nm	–	–	79	73	–	–	–	–	–
